# B1: murine anti-Tau hybridoma antibody 17G2.A1 (antibody, V domains shown)
# VH: QVQLQQPGAELVGPGSSVKLSCKASGYTFINYWIDWMKQSPGQGLEWIGNIYPSDSESHYNQKFTDKATLTVDISSSTAYLQLSSLTSEDSAVYYCALYSKGYWGQGTSVTVSS
# VL: DVLMTQTPLSLPVTLGDQASISCRSSQNIVHTNGNTYLEWYLQKPGQSPKLLIYKLSSRFSGVPDRFSGSGSGTDFTLKISRVEAEDLGVYYCFQGSHLPFTFGGGTKLEIKR
# notes: mouse IgG from hybridoma; also called anti-Tau 17G2.A1
# Target: T1, cynomolgus monkey Tau (cynomolgus monkey, UniProt P57786 2-459 (rhesus entry))
# T1 construct: also called cyno Tau; cyno-Tau
# Experiment: ELISA, hybridoma antibody
# Method: Primary screening was performed by coating 96-well ELISA Nunc plates overnight at 4° C. with 1 μg/mL r-Tau in PBS. The plates were washed three times with PBST using a Biotek plate washer. 50 µL/well of hybridoma supernatants were added to the plates with incubation at room temperature for 1 hour. Plates were washed three times with PBST. A secondary detection antibody goat X m HRP (Southern Biotech) at 1:2000 dilution, 50 μL/well was added to the plate and incubated for 1 hour at room temperature. At the end of an hour, plates were washed three time with PBST. Plates were developed with 50 μL/well of TMB substrate (Thermo Fisher) and quenched with 50 μL/well of 1N sulfuric acid. The signal was quantified on a BioTek® plate reader at A450. Wells with an OD three times the background for r-Tau were considered positive and carried forward for secondary screening.
# Positives from primary screening were carried forward into the secondary screening where they were screened by ELISA using the above protocol on r-Tau, p-Tau, and cyno-Tau for binding and cross-reactivity. Further characterization on the five different Tau isoforms was performed by the same method.
# T1 sequence (P57786 other isoform, or with tags, fused parts or gaps limits assumed): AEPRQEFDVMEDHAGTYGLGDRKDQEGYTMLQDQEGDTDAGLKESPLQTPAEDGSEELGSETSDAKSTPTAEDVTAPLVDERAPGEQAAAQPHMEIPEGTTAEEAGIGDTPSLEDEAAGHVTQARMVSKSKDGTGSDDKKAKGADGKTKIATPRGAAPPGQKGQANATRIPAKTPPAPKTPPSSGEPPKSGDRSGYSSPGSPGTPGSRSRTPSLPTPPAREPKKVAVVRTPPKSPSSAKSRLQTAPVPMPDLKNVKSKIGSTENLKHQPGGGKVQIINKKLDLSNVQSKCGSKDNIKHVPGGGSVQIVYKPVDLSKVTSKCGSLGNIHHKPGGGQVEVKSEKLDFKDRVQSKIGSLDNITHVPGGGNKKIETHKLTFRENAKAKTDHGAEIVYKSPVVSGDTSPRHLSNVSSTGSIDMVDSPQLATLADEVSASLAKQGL
binder,measurement,value
B1,binding result,binds
